Assay results as given in publication PMC8835842, “YdfD, a Lysis Protein of the Qin Prophage, Is a Specific Inhibitor of the IspG-Catalyzed Step in the MEP Pathway of Escherichia coli” (International Journal of Molecular Sciences, 2022).

B1: YdfD (MBP tag cleaved) (natural protein, E. coli BL21(DE3), UniProt P29010 1-63, looked up)
chain: MNSAFVLVLTVFLVSGEPVDIAVSVHRTMQECMTAATEQKIPGNCYPVDKVIHQDNIEIPAGL
notes: YdfD, lysis protein of the Qin cryptic prophage, 63 amino acids; ydfD amplified from the E. coli BL21(DE3) genome; No truncation is told for this construct; source: E. coli BL21(DE3), purified as MBP-YdfD (amylose resin), MBP cleaved by PreScission protease; not shown: MBP, N-terminal, cleaved
B2: IspG-His (enzyme, E. coli BL21(DE3), UniProt P62620 1-372, looked up)
chain: MHNQAPIQRRKSTRIYVGNVPIGDGAPIAVQSMTNTRTTDVEATVNQIKALERVGADIVRVSVPTMDAAEAFKLIKQQVNVPLVADIHFDYRIALKVAEYGVDCLRINPGNIGNEERIRMVVDCARDKNIPIRIGVNAGSLEKDLQEKYGEPTPQALLESAMRHVDHLDRLNFDQFKVSVKASDVFLAVESYRLLAKQIDQPLHLGITEAGGARSGAVKSAIGLGLLLSEGIGDTLRVSLAADPVEEIKVGFDILKSLRIRSRGINFIACPTCSRQEFDVIGTVNALEQRLEDIITPMDVSIIGCVVNGPGEALVSTLGVTGGNKKSGLYEDGVRKDRLDNNDMIDQLEARIRAKASQLDEARRIDVQQVEK
notes: ispG amplified from the E. coli BL21(DE3) genome; also called His-tagged ispG; GcpE; source: E. coli BL21(DE3); coexpressed with YdfD constructs, in lysate; and purified (Ni-NTA, Superdex 200)

How the values were obtained:
IspG-His = molecular target: B2; experiment: ITC; IspG (1.1 mM) injected into YdfD in the cell, 2 μL injections at 120 s spacing, 25 °C, 20 mM Tris, 150 mM NaCl, pH 8.0; one-site binding fit; conditions: both partners purified
YdfD (MBP tag cleaved) = molecular target: B1; experiment: as above; conditions: both partners purified

| Binder | Kd (IspG-His) | dH (YdfD (MBP tag cleaved)) | stoichiometry N (YdfD (MBP tag cleaved)) |
| --- | --- | --- | --- |
| B1 | 18.4 µM | – | – |
| B2 | – | 1.57 kcal/mol | 0.63 |
